Laboratory results taken from article doi:10.1101/2025.03.24.645063 (2025).

Target: CRBN/DDB1 complex (human | , UniProt Q96SW2 1-442; Q16531 1-1140, CoraFluor-1 label (on the complex, chain not told))
Assay: FRET; TR-FRET competitive displacement of thal-FITC

Kd: 1500 nM
B1: UROD with C-terminal cyclic imide (recombinant UROD incubated with PCMT1) (natural protein)
chain: MEANGLGPQGFPELKNDTFLRAAWGEETDYTPVWCMRQAGRYLPEFRETRAAQDFFSTCRSPEACCELTLQPLRRFPLDAAIIFSDILVVPQALGMEVTMVPGKGPSFPEPLREEQDLERLRDPEVVASELGYVFQAITLTRQRLAGRVPLIGFAGAPWTLMTYMVEGGGSSTMAQAKRWLYQRPQASHQLLRILTDALVPYLVGQVVAGAQALQLFESHAGHLGPQLFNKFALPYIRDVAKQVKARLREAGLAPVPMIIFAKDGHFALEELAQAGYEVVGLDWTVAPKKARECVGKTVTLQGNLDPCALYASEEEIGQLVKQMLDDFGPHRYIANLGHGLYPDMDPEHVGAFVDAVHKHSRLLRQN
modifications: C-terminal cyclic imide on the C-terminal asparagine (N367), confirmed by mass spectrometry
